Data on two proteins can be found in publication PMC2788424, “The 3′-Phosphoadenosine 5′-Phosphosulfate Transporters, PAPST1 and 2, Contribute to the Maintenance and Differentiation of Mouse Embryonic Stem Cells” (PLoS ONE, 2009).

Substrate in this data set: Nc1ncnc2c1ncn2[C@@H]1O[C@H](COP(=O)(O)OS(=O)(=O)O)[C@@H](OP(=O)(O)O)[C@H]1O
Put plainly: cells, lysate or membranes. The class given is biochemical, Mus musculus. Particulars: labelled compound, 20 mM Tris-HCl pH 7.5, 0.25 M sucrose, 5 mM MgCl2, 1 mM MnCl2, 10 mM 2-mercaptoethanol, 32°C, 5 min.

B1: PAPST2 (Mus musculus) (protein)
chain: MDLKFNNSRKYVSISVPSKTQAMSPHIKSVEDVVVLGVNLSKFSKLTQFLICVAGVFVFYLIYGYLQELIFSVEGFKPYGWYLTLVQFAFYSVFGLIELQLTQDRRRRIPGKTYMLIAFLTVGTMGLSNTSLGYLNYPTQVIFKCCKLIPVMLGGVFIQGKRYNLADVSAAVCMSLGLIWFTLADSTIAPNFNLTGVMLISLALCADAVIGNVQEKAMKLHNASNSEMVLYSYSIGFVYILLGLSCTSGLGPAVAFCSKNPVGTYGYAFLFSLTGYFGISFVLALIKIFGALLAVTVTTGRKAMTVVLSFLFFAKPFTFQYIWSGLLVVLGIFLNVYSKNMDKIRLPSVYNMIKKAMDMKKSRTLAQTV
B1: the Michaelis-Menten constant (Km) (commonly the substrate concentration at which the rate is half of its maximum) came out at 1.49 µM.

B2: PAPST1 (Mus musculus) (protein)
chain: MDARWWAVVVLATLPSLGAGGESPEAPPQSWTQLWLFRFLLNVAGYASFMVPGYLLVQYLRRKNYLETGRGLCFPLVKACVFGNEPKAPDEVLLAPRTETAESTPSWQVLKLVFCASGLQVSYLTWGILQERVMTGSYGATATSPGEHFTDSQFLVLMNRVLALVVAGLYCVLRKQPRHGAPMYRYSFASLSNVLSSWCQYEALKFVSFPTQVLAKASKVIPVMMMGKLVSRRSYEHWEYLTAGLISIGVSMFLLSSGPEPRSSPATTLSGLVLLAGYIAFDSFTSNWQDALFAYKMSSVQMMFGVNLFSCLFTVGSLLEQGALLEGARFMGRHSEFALHALLLSICSAFGQLFIFYTIGQFGAAVFTIIMTLRQAIAILLSCLLYGHTVTVVGGLGVAVVFTALLLRVYARGRKQRGKKAVPTEPPVQKV
As for B2, the Km stood at 1.54 µM.
